Source: patent publication US20050119163A1

Target: Biotinylated Grb2 SH2 domain protein (UniProt P62993)
Experiment: SPR (Biacore S51), b-Grb2 amine-coupled on CM5 chip, compound in solution

Sequence of Biotinylated Grb2 SH2 domain protein (P62993 60-152 limits assumed): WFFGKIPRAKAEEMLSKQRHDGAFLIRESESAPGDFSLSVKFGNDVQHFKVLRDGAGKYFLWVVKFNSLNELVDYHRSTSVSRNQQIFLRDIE

Kd: 1.67 nM
Substance: Compound 6, tri-sodium salt of compound 5: 2-{(9S,10S,14R,18S)-7,16,19-Triaza-18-(carbamoylmethyl)-14-[(5-methyl indolyl)methyl]-8,17,20-trioxo-10-[4-(phosphonomethyl)phenyl]spiro[5.14]icos-11-en-9-yl}acetic acid (peptide)
